The target in one series is APE1 (Homo sapiens) (UniProt P27695). Put plainly: fluorescence polarization. The following applies: 5 nM DNA, no Mg2+ listed, THF at nt 15 of strand 1 (N), EMSA: 20 mM HEPES pH 7.9, 1 mM DTT, 30 mM NaCl, 0.03% NP-40, 10% glycerol, 1 ug poly(dI-dC), 20 min room temperature, FP: 10 mM HEPES pH 7.5, 50 mM KCl. Background: Polarisation of emitted light reports the rotation of a fluorescent probe.

The target of the next series is T1, EEPD1 (Homo sapiens) (UniProt Q7L9B9).
T1 sequence: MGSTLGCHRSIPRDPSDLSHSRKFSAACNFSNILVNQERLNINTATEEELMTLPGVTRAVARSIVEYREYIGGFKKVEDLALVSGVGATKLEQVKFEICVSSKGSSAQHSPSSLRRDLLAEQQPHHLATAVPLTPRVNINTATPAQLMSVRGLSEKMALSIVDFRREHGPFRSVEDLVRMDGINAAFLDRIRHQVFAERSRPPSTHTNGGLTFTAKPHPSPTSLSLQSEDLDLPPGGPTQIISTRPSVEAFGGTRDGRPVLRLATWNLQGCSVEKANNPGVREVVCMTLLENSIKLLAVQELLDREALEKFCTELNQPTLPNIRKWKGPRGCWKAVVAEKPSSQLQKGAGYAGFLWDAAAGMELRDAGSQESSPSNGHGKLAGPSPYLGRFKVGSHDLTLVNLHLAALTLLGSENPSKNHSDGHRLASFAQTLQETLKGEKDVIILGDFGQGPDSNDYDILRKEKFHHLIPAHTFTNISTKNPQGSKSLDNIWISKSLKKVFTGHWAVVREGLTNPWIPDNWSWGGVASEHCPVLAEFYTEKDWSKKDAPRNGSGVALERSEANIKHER
Put plainly: fluorescence polarization. The following applies: 5 nM DNA, no Mg2+ listed, THF at nt 15 of strand 1 (N), EMSA: 20 mM HEPES pH 7.9, 1 mM DTT, 30 mM NaCl, 0.03% NP-40, 10% glycerol, 1 ug poly(dI-dC), 20 min room temperature, FP: 10 mM HEPES pH 7.5, 50 mM KCl.

The target in a further series is T2, EEPD1 (Homo sapiens, UniProt Q7L9B9 1-569).
T2 sequence: T1 sequence
Nature of the series: EMSA; 1 ug poly(dI-dC); less than THF fork; EMSA: 20 mM HEPES pH 7.9, 1 mM DTT, 30 mM NaCl, 0.03% NP-40, 10% glycerol, 1 ug poly(dI-dC), 20 min room temperature; FP: 10 mM HEPES pH 7.5, 50 mM KCl, 5 nM DNA, 0-1000 nM protein. The following applies: protein: recombinant; tags: FLAG; label: 32P 5'-end; fork 1:2 1:3 2:4.

APE1 (Homo sapiens), sequence (P27695 whole entry): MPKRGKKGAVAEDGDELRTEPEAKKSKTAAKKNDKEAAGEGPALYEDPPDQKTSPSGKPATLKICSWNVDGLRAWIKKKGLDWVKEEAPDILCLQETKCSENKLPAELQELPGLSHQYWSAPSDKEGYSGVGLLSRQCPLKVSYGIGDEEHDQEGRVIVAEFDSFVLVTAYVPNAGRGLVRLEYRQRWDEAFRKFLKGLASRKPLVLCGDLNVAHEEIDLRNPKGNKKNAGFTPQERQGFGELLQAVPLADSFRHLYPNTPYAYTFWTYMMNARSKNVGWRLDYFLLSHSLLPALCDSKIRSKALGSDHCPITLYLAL

In general, Kd refers to the equilibrium constant for the complex coming apart. Read a high Kd as a looser complex. “CATGCAGCTGATGCNTACAACACACTGTG / TTTTCCCCCCCCCCCGCATCAGCTGCATG / CACAGTGTGTTGTA / GGGGGGGGGGAAAA”: the figures for the Kd in the series with APE1 (Homo sapiens) and in the series with EEPD1 (Homo sapiens) were 21 nM and 81 nM, respectively.

B1: fork DNA without abasic site (Oligos D, F, G, H) (structured_DNA)
DNA 1: CATGCAGCTGATGCGTACAACACACTGTG
DNA 2: TTTTCCCCCCCCCCCGCATCAGCTGCATG
DNA 3: CACAGTGTGTTGTA
DNA 4: GGGGGGGGGGAAAA
As to B1, the binding result in the series with EEPD1 is recorded as “binds”.

The record behind these values is publication PMC9846428, “EEPD1 promotes repair of oxidatively-stressed replication forks”.
